This assay deals with histone H4 (Xenopus laevis, UniProt P62799 2-103). As to the kind of experiment: cryo-EM structure.

B1: Dot1L(2-416) (domain or fragment)
chain: GEKLELRLKSPVGAEPAVYPWPLPVYDKHHDAAHEIIETIRWVCEEIPDLKLAMENYVLIDYDTKSFESMQRLCDKYNRAIDSIHQLWKGTTQPMKLNTRPSTGLLRHILQQVYNHSVTDPEKLNNYEPFSPEVYGETSFDLVAQMIDEIKMTDDDLFVDLGSGVGQVVLQVAAATNCKHHYGVEKADIPAKYAETMDREFRKWMKWYGKKHAEYTLERGDFLSEEWRERIANTSVIFVNNFAFGPEVDHQLKERFANMKEGGRIVSSKPFAPLNFRINSRNLSDIGTIMRVVELSPLKGSVSWTGKPVSYYLHTIDRTILENYFSSLKNPKLREEQEAARRRQQRESKSNAATPTKGPEGKVAGPADAPMDSGAEEEKAGAATVKKPSPSKARKKKLNKKGRKMAGRKRGRPKK
With B1, the binding result is on record as “binds”.

For the origin of these results see PMC6498860 (Cell, 2019).
